Measurements as given in PMC2955445 (Journal of the American Chemical Society, 2010).
Where two headings read alike, the source gives them in different places.

B1: Enzyme I (EI), full length (residues 1-575), from E. coli (enzyme)
chain: not shown
B2: histidine phosphocarrier protein HPr (natural protein)
chain: not shown

Columns and labels:
AUC = molecular target: the molecule itself; experiment: AUC
[1] = molecular target: B1; experiment: ITC
[2] = molecular target: B1; experiment: ITC; remark: listed apart in the source

Row | Binder | stoichiometry N (AUC) | Kd [1] [µM] | Kd [2] [µM]
1 | B1 | 2 |  | 
2 | B2 |  | 21 ± 1.1 | 6.8 ± 1.8
